# Measurements reported in the Immune Epitope Database (IEDB).
# What was measured:
# HLA-B*40:01 = experiment: IEDB peptide-MHC binding, purified MHC/direct/fluorescence; filed as Kd, often an IC50 or EC50 that approximates it; ≥ and ≤ were set here for values at or beyond the usual limits of such assays
# HLA-A*02:01 [1] = experiment: as above; settings: source organism: Homo sapiens
# HLA-B*15:01 = experiment: as above
# HLA-A*69:01 = experiment: as above
# HLA-B*07:02 = experiment: as above
# HLA-A*29:02 = experiment: IEDB peptide-MHC binding, purified MHC/competitive/fluorescence; filed as Kd, often an IC50 or EC50 that approximates it; ≥ and ≤ were set here for values at or beyond the usual limits of such assays; settings: source organism: Homo sapiens
# HLA-A*02:50 = experiment: as above; settings: source organism: Homo sapiens
# HLA-A*25:01 = experiment: as above; settings: source organism: Homo sapiens
# HLA-A*30:01 [2] = experiment: as above; settings: source organism: Homo sapiens
# HLA-B*44:02 = experiment: as above; settings: source organism: Homo sapiens
# HLA-B*51:01 = experiment: as above
# HLA-A*24:03 [3] = experiment: as above; settings: source organism: Homo sapiens
# HLA-B*57:01 [4] = experiment: as above; settings: source organism: Homo sapiens
# HLA-B*58:01 [5] = experiment: IEDB peptide-MHC binding, purified MHC/competitive/fluorescence; ≥ and ≤ were set here for values at or beyond the usual limits of such assays; settings: source organism: Homo sapiens
# HLA-B*15:02 = experiment: IEDB peptide-MHC binding, purified MHC/competitive/fluorescence; filed as Kd, often an IC50 or EC50 that approximates it; ≥ and ≤ were set here for values at or beyond the usual limits of such assays; settings: source organism: Toxoplasma gondii RH
# HLA-A*01:01 = experiment: IEDB peptide-MHC binding, purified MHC/direct/fluorescence; filed as Kd, often an IC50 or EC50 that approximates it; ≥ and ≤ were set here for values at or beyond the usual limits of such assays; settings: source organism: Marburg virus - Musoke, Kenya, 1980
# HLA-A*31:01 = experiment: as above; settings: source organism: Marburg virus - Musoke, Kenya, 1980
# HLA-B*38:01 = experiment: as above; settings: source organism: Ravn virus - Ravn, Kenya, 1987
# HLA-A*30:01 [6] = experiment: as above; settings: source organism: Ravn virus - Ravn, Kenya, 1987
# HLA-B*27:05 = experiment: as above; settings: source organism: Marburg virus - Musoke, Kenya, 1980
# HLA-A*26:01 = experiment: as above; settings: source organism: Ravn virus - Ravn, Kenya, 1987
# HLA-B*57:01 [7] = experiment: as above; settings: source organism: Marburg virus - Musoke, Kenya, 1980
# HLA-B*15:17 = experiment: as above; settings: source organism: Marburg virus - Musoke, Kenya, 1980
# HLA-B*46:01 [8] = experiment: as above; settings: source organism: Marburg virus - Musoke, Kenya, 1980
# HLA-B*18:01 = experiment: as above; settings: source organism: Marburg virus - Musoke, Kenya, 1980
# HLA-A*03:01 = experiment: as above; settings: source organism: Marburg virus - Musoke, Kenya, 1980
# HLA-B*48:01 = experiment: as above; settings: source organism: Marburg virus - Musoke, Kenya, 1980
# HLA-B*58:01 [9] = experiment: as above; settings: source organism: Marburg virus - Musoke, Kenya, 1980
# HLA-A*02:01 [10] = experiment: IEDB peptide-MHC binding, purified MHC/competitive/fluorescence; filed as Kd, often an IC50 or EC50 that approximates it; ≥ and ≤ were set here for values at or beyond the usual limits of such assays; settings: source organism: Orthomarburgvirus marburgense
# HLA-A*11:01 = experiment: as above; settings: source organism: Orthomarburgvirus marburgense
# HLA-B*39:01 = experiment: as above; settings: source organism: Orthomarburgvirus marburgense
# HLA-B*53:01 = experiment: IEDB peptide-MHC binding, purified MHC/competitive/fluorescence; ≥ and ≤ were set here for values at or beyond the usual limits of such assays; settings: source organism: Ornithorhynchus anatinus
# HLA-C*12:03 = experiment: IEDB peptide-MHC binding, purified MHC/direct/fluorescence; filed as Kd, often an IC50 or EC50 that approximates it; ≥ and ≤ were set here for values at or beyond the usual limits of such assays; settings: source organism: Giardia lamblia ATCC 50803
# HLA-A*24:03 [11] = experiment: as above; settings: source organism: Giardia lamblia ATCC 50803
# HLA-C*14:02 = experiment: IEDB peptide-MHC binding, purified MHC/competitive/fluorescence; filed as Kd, often an IC50 or EC50 that approximates it; ≥ and ≤ were set here for values at or beyond the usual limits of such assays; settings: source organism: Giardia lamblia ATCC 50803
# HLA-B*83:01 = experiment: as above; settings: source organism: Giardia lamblia ATCC 50803
# HLA-B*45:06 = experiment: as above; settings: source organism: Giardia lamblia ATCC 50803
# HLA-A*32:15 = experiment: as above; settings: source organism: Giardia lamblia ATCC 50803
# HLA-C*06:02 = experiment: as above; settings: source organism: Giardia lamblia ATCC 50803
# HLA-C*04:01 = experiment: as above; settings: source organism: Giardia lamblia ATCC 50803
# HLA-A*68:23 = experiment: as above; settings: source organism: Giardia lamblia ATCC 50803
# HLA-B*46:01 [12] = experiment: as above; settings: source organism: Giardia lamblia ATCC 50803
# HLA-B*15:42 = experiment: as above; settings: source organism: Giardia lamblia ATCC 50803
# HLA-A*32:07 = experiment: as above; settings: source organism: Giardia lamblia ATCC 50803
# [13] = source organism: Marburg virus - Musoke, Kenya, 1980
sequence,measurement,setting,value
EVIPYTPAM,Kd,HLA-B*40:01; source organism: Homo sapiens,13.2 µM
same,Kd,HLA-A*02:01 [1],5.7 µM
same,Kd,HLA-B*15:01; source organism: Homo sapiens,4.76 µM
same,Kd,HLA-A*69:01; source organism: Homo sapiens,7.17 nM
same,Kd,HLA-B*07:02; source organism: Homo sapiens,4710 nM
same,Kd,HLA-A*29:02,≥ 20 µM
same,Kd,HLA-A*02:50,≥ 20 µM
same,Kd,HLA-A*25:01,10.8 nM
same,Kd,HLA-A*30:01 [2],≥ 20 µM
same,Kd,HLA-B*44:02,≥ 20 µM
same,Kd,HLA-B*51:01; source organism: Homo sapiens,≥ 20000 nM
same,Kd,HLA-A*24:03 [3],≥ 20 µM
same,Kd,HLA-B*57:01 [4],≥ 20 µM
KSLTTTMQF,IC50,HLA-B*58:01 [5],136 nM
SLSSPDSAY,Kd,HLA-B*15:02,25.1 nM
VPAWLPLGI,Kd,HLA-B*40:01; [13],≥ 20 µM
same,Kd,HLA-A*01:01,≥ 20 µM
same,Kd,HLA-A*31:01,≥ 20 µM
same,Kd,HLA-B*15:01; [13],≥ 20 µM
same,Kd,HLA-B*38:01,≥ 20 µM
same,Kd,HLA-A*30:01 [6],≥ 20 µM
same,Kd,HLA-B*27:05,≥ 20 µM
same,Kd,HLA-A*26:01,≥ 20 µM
same,Kd,HLA-B*57:01 [7],≥ 20 µM
same,Kd,HLA-B*15:17,288 nM
same,Kd,HLA-A*69:01; [13],11.1 nM
same,Kd,HLA-B*46:01 [8],≥ 20 µM
same,Kd,HLA-B*18:01,5.81 µM
same,Kd,HLA-A*03:01,≥ 20 µM
same,Kd,HLA-B*48:01,≥ 20 µM
same,Kd,HLA-B*58:01 [9],≥ 20 µM
same,Kd,HLA-B*07:02; [13],732 nM
same,Kd,HLA-A*02:01 [10],1050 nM
same,Kd,HLA-A*11:01,≥ 20 µM
same,Kd,HLA-B*51:01; source organism: Orthomarburgvirus marburgense,116 nM
same,Kd,HLA-B*39:01,2680 nM
YSLEYFQF,IC50,HLA-B*53:01,4.79 µM
YTFFFTQYF,Kd,HLA-C*12:03,44 nM
same,Kd,HLA-A*24:03 [11],28.5 nM
same,Kd,HLA-C*14:02,79.4 nM
same,Kd,HLA-B*83:01,≥ 5 µM
same,Kd,HLA-B*45:06,≥ 5 µM
same,Kd,HLA-A*32:15,91.1 nM
same,Kd,HLA-C*06:02,1390 nM
same,Kd,HLA-C*04:01,≥ 5 µM
same,Kd,HLA-A*68:23,≤ 0.1 nM
same,Kd,HLA-B*46:01 [12],342 nM
same,Kd,HLA-B*15:42,≥ 5 µM
same,Kd,HLA-A*32:07,34.5 nM
